Assay results as given in IntAct's records for PubMed 21803990.

B1: ATP-dependent protease ATPase subunit HslU (Escherichia coli (strain K12)), P0A6H5 (parent)
chain: MSEMTPREIVSELDKHIIGQDNAKRSVAIALRNRWRRMQLNEELRHEVTPKNILMIGPTGVGKTEIARRLAKLANAPFIKVEATKFTEVGYVGKEVDSIIRDLTDAAVKMVRVQAIEKNRYRAEELAEERILDVLIPPAKNNWGQTEQQQEPSAARQAFRKKLREGQLDDKEIEIDLAAAPMGVEIMAPPGMEEMTSQLQSMFQNLGGQKQKARKLKIKDAMKLLIEEEAAKLVNPEELKQDAIDAVEQHGIVFIDEIDKICKRGESSGPDVSREGVQRDLLPLVEGCTVSTKHGMVKTDHILFIASGAFQIAKPSDLIPELQGRLPIRVELQALTTSDFERILTEPNASITVQYKALMATEGVNIEFTDSGIKRIAEAAWQVNESTENIGARRLHTVLERLMEEISYDASDLSGQNITIDADYVSKHLDALVADEDLSRFIL
partner: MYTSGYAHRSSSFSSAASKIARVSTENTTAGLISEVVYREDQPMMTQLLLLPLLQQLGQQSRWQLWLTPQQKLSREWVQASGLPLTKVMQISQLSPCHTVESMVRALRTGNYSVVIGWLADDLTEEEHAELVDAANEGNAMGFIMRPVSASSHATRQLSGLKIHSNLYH

Variants of: B1
Conditions: with sula_ecoli sulA

Row | Variant | effect of a mutation on the interaction
1 | G90D | increasing interaction

Variants of: B1
Conditions: with sula_ecoli sulA
Remark: another data set of the same source

Row | Variant | effect of a mutation on the interaction
2 | Y91F | increasing interaction
3 | E266Q | increasing interaction
4 | Y408A | increasing interaction
